The values that follow come from publication PMC6648347, “Effective mismatch repair depends on timely control of PCNA retention on DNA by the Elg1 complex” (Nucleic Acids Research, 2019).

Substitutions are numbered along the chain they refer to. Names may count otherwise.

This data set deals with the molecule itself. The data set can be described thus: crystal structure; hanging drop, room temperature; 50 mM sodium citrate pH 5.3, 1.7 M (NH4)2SO4 for PCNA-D17K; 50 mM sodium citrate pH 5.6, 2 M (NH4)2SO4 for PCNA-D21K; molecular replacement with wild-type PCNA (PDB 4YHR).

B1: PCNA-D17K (recombinant, crystallised) (natural protein, S. cerevisiae)
chain: MLEAKFEEASLFKRIIKGFKDCVQLVNFQCKEDGIIAQAVDDSRVLLVSLEIGVEAFQEYRCDHPVTLGMDLTSLSKILRCGNNTDTLTLIADNTPDSIILLFEDTKKDRIAEYSLKLMDIDADFLKIEELQYDSTLSLPSSEFSKIVRDLSQLSDSINIMITKETIKFVADGDIGSGSVIIKPFVDMEHPETSIKLEMDQPVDLTFGAKYLLDIIKGSSLSDRVGIRLSSEAPALFQFDLKSGFLQFFLAPKFNDEE
notes: PCNA (POL30), S. cerevisiae, with D17K; modified pET-28 vector with an N-terminal 6-His tag and a PreScission Protease cleavage site; also called PCNA mutant D17K
For the protein B1, the binding result is “binds”.

B2: PCNA-D21K (recombinant, crystallised) (natural protein, S. cerevisiae)
chain: B1 chain with K17D, D21K
notes: PCNA (POL30), S. cerevisiae, with D21K; modified pET-28 vector with an N-terminal 6-His tag and a PreScission Protease cleavage site; also called PCNA mutant D21K
In the case of B2, the binding result is reported as “binds”.
